# Test results from patent US20190284293A1, “COMBINATION THERAPY WITH ANTI-CD73 ANTIBODIES” (BRISTOL-MYERS SQUIBB COMPANY, priority 2016, published 2019).
# T1: CD32a-H131 (FcgRIIa-H131) (Homo sapiens, UniProt P12318)
# T1 sequence (P12318 34-217 limits assumed): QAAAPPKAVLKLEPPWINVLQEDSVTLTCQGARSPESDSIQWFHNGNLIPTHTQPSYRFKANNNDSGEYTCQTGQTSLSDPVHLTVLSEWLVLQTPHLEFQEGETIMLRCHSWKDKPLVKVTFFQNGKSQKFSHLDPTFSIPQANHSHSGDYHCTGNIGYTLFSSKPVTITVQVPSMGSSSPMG
# T2: CD32b (FcgRIIb) (Homo sapiens, UniProt P31994)
# T2 sequence (P31994 43-310): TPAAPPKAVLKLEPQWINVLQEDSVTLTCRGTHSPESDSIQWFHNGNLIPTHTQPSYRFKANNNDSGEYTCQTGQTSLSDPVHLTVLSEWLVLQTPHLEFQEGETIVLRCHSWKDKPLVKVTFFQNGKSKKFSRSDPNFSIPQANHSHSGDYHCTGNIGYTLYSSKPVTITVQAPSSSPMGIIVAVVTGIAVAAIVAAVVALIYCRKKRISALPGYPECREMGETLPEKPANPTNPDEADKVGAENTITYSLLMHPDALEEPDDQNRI
# T3: CD32a-R131 (FcgRIIa-R131) (Homo sapiens, UniProt P12318, H167R)
# T3 sequence (P12318 34-217 H167R limits assumed): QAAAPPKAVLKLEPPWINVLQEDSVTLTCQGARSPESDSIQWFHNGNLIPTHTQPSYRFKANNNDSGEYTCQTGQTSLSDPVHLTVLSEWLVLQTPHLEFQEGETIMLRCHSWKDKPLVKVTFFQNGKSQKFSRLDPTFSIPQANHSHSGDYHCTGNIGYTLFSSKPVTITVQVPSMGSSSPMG
# Key:
# Experiment in all cases: SPR, antibody binding to anti-his Fab captured FcgR-his (% Rmax)
# Settings in all cases: 1 μM antibody
# [1] = target: T1, CD32a-H131 (FcgRIIa-H131)
# Procedure: (§1) The binding of antibodies to Fc gamma receptors (FcγRs or FcgRs) was studied using biosensor technologies including Biacore surface plasmon resonance (SPR) and Fortebio Biolayer Interferometry (BLI). SPR studies were performed on a Biacore T100 instrument (GE Healthcare) at 25° C. The Fab fragment from a murine anti-6×His antibody was immobilized on a CM5 sensor chip using EDC/NHS to a density of −3000 RU. Various his-tagged FcgRs (7 ug/ml) were captured via the C-terminal his-tag using a contact time of 30 s at 10 ul/min, and the binding of 1.0 μM antibody was evaluated in a running buffer of 10 mM NaPO4, 130 mM NaCl, 0.05% p20 (PBS-T) pH 7.1. FcgRs used for these experiments included CD64 (FcgRI), CD32a-H131 (FcgRIIa-H131), CD32a-R131 (FcgRIIa-R131), CD32b (FcgRIIb), CD16a-V158 (FcgRIIIa-V158), CD16b-NA1 (FcgRIIIb-NA1), and CD16B-NA2 (FcgRIIIb-NA2). BLI experiments were performed on a Fortebio Octet RED instrument (Pall, Fortebio) at 25° C. in 10 mM NaPO4, 130 mM NaCl, 0.05% p20 (PBS-T) pH 7.1. Antibodies were captured out of undiluted expression supernatants on protein A coated sensors, followed by the binding of 1 μM hCD32a-H131, hCD32a-R131, hCD32b, hCD16a-V158, or 0.1 μM hCD64 analytes.
# CD64 (FcgRI) = CD64 (FcgRI) (Homo sapiens, UniProt P12314)
# Procedure: as §1
# CD16B-NA2 (FcgRIIIb-NA2) = CD16B-NA2 (FcgRIIIb-NA2) (Homo sapiens, UniProt O75015)
# Procedure: as §1
# [2] = target: CD16a-V158 (FcgRIIIa-V158) (Homo sapiens, UniProt P08637, F176V)
# Procedure: as §1
# CD32b (FcgRIIb) = target: T2, CD32b (FcgRIIb)
# Procedure: as §1
# [3] = target: T3, CD32a-R131 (FcgRIIa-R131)
# Procedure: as §1
# CD16B-NA2 (FcgRIIIb-NA2), sequence (O75015 17-200 limits assumed): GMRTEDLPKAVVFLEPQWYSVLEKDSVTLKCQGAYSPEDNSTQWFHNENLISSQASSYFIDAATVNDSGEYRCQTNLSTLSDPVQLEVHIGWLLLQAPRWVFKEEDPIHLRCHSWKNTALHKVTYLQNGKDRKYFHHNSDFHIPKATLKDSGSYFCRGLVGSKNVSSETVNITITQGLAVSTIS
# CD16a-V158 (FcgRIIIa-V158), sequence (P08637 17-208 F176V limits assumed): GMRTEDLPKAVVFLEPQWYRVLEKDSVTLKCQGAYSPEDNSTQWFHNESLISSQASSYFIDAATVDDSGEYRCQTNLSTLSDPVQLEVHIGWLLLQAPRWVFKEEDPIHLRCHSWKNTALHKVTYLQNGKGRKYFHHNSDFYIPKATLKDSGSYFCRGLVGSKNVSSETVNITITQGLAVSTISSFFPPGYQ
# CD64 (FcgRI), sequence (P12314 16-374): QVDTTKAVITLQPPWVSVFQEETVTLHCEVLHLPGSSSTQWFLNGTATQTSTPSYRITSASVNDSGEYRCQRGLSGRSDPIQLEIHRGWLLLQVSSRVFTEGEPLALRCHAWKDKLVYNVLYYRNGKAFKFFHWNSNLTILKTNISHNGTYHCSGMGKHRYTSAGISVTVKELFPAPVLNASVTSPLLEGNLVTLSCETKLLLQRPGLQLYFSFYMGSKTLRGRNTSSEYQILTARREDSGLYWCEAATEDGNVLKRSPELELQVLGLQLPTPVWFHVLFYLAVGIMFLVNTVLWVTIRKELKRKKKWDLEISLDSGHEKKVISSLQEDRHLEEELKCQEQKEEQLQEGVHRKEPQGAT
Molecule,% Rmax hCD32a-H131 [1] [%],% Rmax hCD64 (CD64 (FcgRI)) [%],% Rmax hCD16B-NA2 (CD16B-NA2 (FcgRIIIb-NA2)) [%],% Rmax hCD16a-V158 [2] [%],% Rmax hCD32b (CD32b (FcgRIIb)) [%],% Rmax hCD32a-R131 [3] [%]
"mAb11-IgG2.3 (protein, left off: another chain or arm of the molecule) constant: ASTKGPSVFPLAPCSRSTSESTAALGCLVKDYFPEPVTVSWNSGALTSGVHTFPAVLQSSGLYSLSSVVTVPSSNFGTQTYTCNVDHKPSNTKVDKTVERKSCVECPPCPAPPVAGPSVFLFPPKPKDTLMISRTPEVTCVVVDVSHEDPEVQFNWYVDGVEVHNAKTKPREEQFNSTFRVVSVLTVVHQDWLNGKEYKCKVSNKGLPAPIEKTISKTKGQPREPQVYTLPPSREEMTKNQVSLTCLVKGFYPSDIAVEWESNGQPENNYKTTPPMLDSDGSFFLYSKLTVDKSRWQQGNVFSCSVMHEALHNHYTQKSLSLSPGK",44,2,0,1,5,17
"mAb4-IgG2.3 (protein, left off: another chain or arm of the molecule) constant: ASTKGPSVFPLAPCSRSTSESTAALGCLVKDYFPEPVTVSWNSGALTSGVHTFPAVLQSSGLYSLSSVVTVPSSNFGTQTYTCNVDHKPSNTKVDKTVERKSCVECPPCPAPPVAGPSVFLFPPKPKDTLMISRTPEVTCVVVDVSHEDPEVQFNWYVDGVEVHNAKTKPREEQFNSTFRVVSVLTVVHQDWLNGKEYKCKVSNKGLPAPIEKTISKTKGQPREPQVYTLPPSREEMTKNQVSLTCLVKGFYPSDIAVEWESNGQPENNYKTTPPMLDSDGSFFLYSKLTVDKSRWQQGNVFSCSVMHEALHNHYTQKSLSLSPGK",39,1,0,1,1,6
"mAb12-IgG2.5 (protein, left off: another chain or arm of the molecule) constant: ASTKGPSVFPLAPSSRSTSESTAALGCLVKDYFPEPVTVSWNSGALTSGVHTFPAVLQSSGLYSLSSVVTVPSSNFGTQTYTCNVDHKPSNTKVDKTVERKCCVECPPCPAPPVAGPSVFLFPPKPKDTLMISRTPEVTCVVVDVSHEDPEVQFNWYVDGVEVHNAKTKPREEQFNSTFRVVSVLTVVHQDWLNGKEYKCKVSNKGLPAPIEKTISKTKGQPREPQVYTLPPSREEMTKNQVSLTCLVKGFYPSDIAVEWESNGQPENNYKTTPPMLDSDGSFFLYSKLTVDKSRWQQGNVFSCSVMHEALHNHYTQKSLSLSPGK",–,1,0,1,1,6
"mAb12-IgG2.3 (protein, left off: another chain or arm of the molecule) constant: ASTKGPSVFPLAPCSRSTSESTAALGCLVKDYFPEPVTVSWNSGALTSGVHTFPAVLQSSGLYSLSSVVTVPSSNFGTQTYTCNVDHKPSNTKVDKTVERKSCVECPPCPAPPVAGPSVFLFPPKPKDTLMISRTPEVTCVVVDVSHEDPEVQFNWYVDGVEVHNAKTKPREEQFNSTFRVVSVLTVVHQDWLNGKEYKCKVSNKGLPAPIEKTISKTKGQPREPQVYTLPPSREEMTKNQVSLTCLVKGFYPSDIAVEWESNGQPENNYKTTPPMLDSDGSFFLYSKLTVDKSRWQQGNVFSCSVMHEALHNHYTQKSLSLSPGK",39,2,0,1,1,7
"mAb10-IgG2.5 (protein, left off: another chain or arm of the molecule) constant: ASTKGPSVFPLAPSSRSTSESTAALGCLVKDYFPEPVTVSWNSGALTSGVHTFPAVLQSSGLYSLSSVVTVPSSNFGTQTYTCNVDHKPSNTKVDKTVERKCCVECPPCPAPPVAGPSVFLFPPKPKDTLMISRTPEVTCVVVDVSHEDPEVQFNWYVDGVEVHNAKTKPREEQFNSTFRVVSVLTVVHQDWLNGKEYKCKVSNKGLPAPIEKTISKTKGQPREPQVYTLPPSREEMTKNQVSLTCLVKGFYPSDIAVEWESNGQPENNYKTTPPMLDSDGSFFLYSKLTVDKSRWQQGNVFSCSVMHEALHNHYTQKSLSLSPGK",–,1,0,1,1,5
"mAb5-IgG2.3 (protein, left off: another chain or arm of the molecule) constant: ASTKGPSVFPLAPCSRSTSESTAALGCLVKDYFPEPVTVSWNSGALTSGVHTFPAVLQSSGLYSLSSVVTVPSSNFGTQTYTCNVDHKPSNTKVDKTVERKSCVECPPCPAPPVAGPSVFLFPPKPKDTLMISRTPEVTCVVVDVSHEDPEVQFNWYVDGVEVHNAKTKPREEQFNSTFRVVSVLTVVHQDWLNGKEYKCKVSNKGLPAPIEKTISKTKGQPREPQVYTLPPSREEMTKNQVSLTCLVKGFYPSDIAVEWESNGQPENNYKTTPPMLDSDGSFFLYSKLTVDKSRWQQGNVFSCSVMHEALHNHYTQKSLSLSPGK",100,6,0,3,4,30
"mAb6-IgG2.3 (protein, left off: another chain or arm of the molecule) constant: ASTKGPSVFPLAPCSRSTSESTAALGCLVKDYFPEPVTVSWNSGALTSGVHTFPAVLQSSGLYSLSSVVTVPSSNFGTQTYTCNVDHKPSNTKVDKTVERKSCVECPPCPAPPVAGPSVFLFPPKPKDTLMISRTPEVTCVVVDVSHEDPEVQFNWYVDGVEVHNAKTKPREEQFNSTFRVVSVLTVVHQDWLNGKEYKCKVSNKGLPAPIEKTISKTKGQPREPQVYTLPPSREEMTKNQVSLTCLVKGFYPSDIAVEWESNGQPENNYKTTPPMLDSDGSFFLYSKLTVDKSRWQQGNVFSCSVMHEALHNHYTQKSLSLSPGK",66,3,0,1,3,14
"mAb8-IgG2.3G1-AY-V27 (protein, left off: another chain or arm of the molecule) constant: ASTKGPSVFPLAPCSRSTSESTAALGCLVKDYFPEPVTVSWNSGALTSGVHTFPAVLQSSGLYSLSSVVTVPSSNFGTQTYTCNVDHKPSNTKVDKTVERKSCVECPPCPAPELLGGPSVFLFPPKPKDTLMISRTPEVTCVVVDVEHEDPEVKFNWYVDGVEVHNAKTKPREEQYNSTYRVVSVLTVLHQDWLNGKEYKCKVSNKALPAPIEKTISKAKGQPREPQVYTLPPSREEMTKNQVSLTCLVKGFYPSDIAVEWESNGQPENNYKTTPPVLDSDGSFFLYSKLTVDKSRWQQGNVFSCSVMHEALHNHYTQKSLSLSPGK",67,78,7,–,67,80
"mAb10-IgG2.3G1-AY-V27 (protein, left off: another chain or arm of the molecule) constant: ASTKGPSVFPLAPCSRSTSESTAALGCLVKDYFPEPVTVSWNSGALTSGVHTFPAVLQSSGLYSLSSVVTVPSSNFGTQTYTCNVDHKPSNTKVDKTVERKSCVECPPCPAPELLGGPSVFLFPPKPKDTLMISRTPEVTCVVVDVEHEDPEVKFNWYVDGVEVHNAKTKPREEQYNSTYRVVSVLTVLHQDWLNGKEYKCKVSNKALPAPIEKTISKAKGQPREPQVYTLPPSREEMTKNQVSLTCLVKGFYPSDIAVEWESNGQPENNYKTTPPVLDSDGSFFLYSKLTVDKSRWQQGNVFSCSVMHEALHNHYTQKSLSLSPGK",–,69,3,12,40,57
